# Assay results as given in publication PMC10542344 (2023).
# Numbering of substitutions follows the chain as printed.
# B1: BDG11.007 (human IgG1) (antibody, V domains shown)
# VH: EVQLVQSGAEVKKPGESLKISCKGSGYSFTSYWIGWVRQMPGKGLEWMGIIYPSDSDTRYSPSFQGQVTISADKSISTAYLQWSSLKASDTAMYYCARYPNYGAFDIWGQGTMVTVSS
# VL: EIVLTQSPATLSLSPGERATLSCRASQSVWSYLAWYQQKPGQAPRLLIYDASNRATGIPARFSGSGSGTDFTLTISSLEPEDFAVYYCQQYFNWGWPFGQGTKLEIK
# B2: BDG11.006 (human IgG1) (antibody, V domains shown)
# VH: B1 VH
# VL: B1 VL with N93Y, W94N
# B3: BDG11.003 (human IgG1) (antibody, V domains shown)
# VH: B1 VH
# VL: B1 VL with W30F, N93Y
# B4: BDG11.004 (human IgG1) (antibody, V domains shown)
# VH: B1 VH
# VL: B1 VL with W30S, N93Y
# B5: BDG11.001 (clone 11.4C_11.001 as soluble human IgG1) (antibody, V domains shown)
# VH: B1 VH
# VL: B1 VL with N93Y
# Target: T1, human IL-17A (recombinant) (human, UniProt Q16552 24-155)
# T1 sequence (Q16552 24-155): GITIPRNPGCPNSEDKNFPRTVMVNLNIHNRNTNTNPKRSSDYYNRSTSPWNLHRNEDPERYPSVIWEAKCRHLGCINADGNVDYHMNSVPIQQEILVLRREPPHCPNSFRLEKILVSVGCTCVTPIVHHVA
# Test: SPR
row,Binder,Kd
1,B1,2.61 nM
2,B2,0.697 nM
3,B3,0.935 nM
4,B4,8.69 nM

# Target: T1, human IL-17A (recombinant)
# Test: SPR
# Remark: another data set of the same source
row,Binder,koff
1,B1,0.0045 s⁻¹
2,B2,0.0009 s⁻¹
3,B3,0.000641 s⁻¹
4,B4,0.00221 s⁻¹

# Target: T1, human IL-17A (recombinant)
# Test: SPR
# Remark: another data set of the same source
row,Binder,koff
1,B5,0.000634 s⁻¹
